Assay results from patent publication US20130059772A1, “Use of Repeat Sequence Protein Polymers in Personal Care Compositions” (DANISCO US INC., priority 2003, published 2013).
Values belong to the compound of their own block, whether it stands above or below them.

Experiments:
[1] = system: elastase; assay: Elastase inhibition assay (fibroblast lysate, STANA substrate); assay type: biochemical, human; conditions: positive control
Method: The RSPP test materials were also tested to determine their effect(s) on elastase activity. In these experiments, human dermal fibroblasts were used as a source of the elastase enzyme. This enzyme was partially purified from the fibroblasts by lysing the cells in an elastase buffer and retaining the soluble portion of the lysate. Portions of this fibroblast lysate were then incubated with test materials and a synthetic elastase substrate, Suc-(Ala3)-p-Nitroaniline (STANA). Elastase acts upon this substrate to release p-nitroaniline, which can be detected spectrophotometrically by measuring the absorbance at a wavelength of 405 nm. […]
The fibroblasts were washed twice with 15 ml of phosphate buffered saline with each wash removed via aspiration. […] The protein concentration of the fibroblast lysate was determined using the Pierce BCA Protein Assay kit (see below for details) and the fibroblast lysate was stored at −75° C. until used (for up to 1 year).
Upon determining the protein concentration of the lysate, a small sample was obtained and the elastase activity of the lysate was determined at 1×, 0.5× and 0.25× concentrations. The activity was determined for each of the different concentrations in exactly the same way that the uninhibited sample was treated in the elastase assay (see below). […] After 1.25 hours, the well plate was removed and read in a 96-well plate reader at 405 nm. […]

[2] = system: cultured dermal fibroblasts; assay: UVB protection, initial MTT assay (material applied after UVB); conditions: Homo sapiens, Fibroblast, light or radiation study, 48 h, read-out: +UVB Percent Viability
Method: (§1) In these experiments, the test material was tested at six concentrations with two duplicate sets of cells prepared. […] Changes in cell viability were then determined 48 hours post material application via an MTT assay, as described above.
(§2) Fibroblasts were seeded into the individual wells of a 96 well plate in 100 μl FGM, and incubated overnight at 37±2° C. and 5±1% CO2. On the following day, the media were removed via aspiration to eliminate any non-adherent cells and replaced with 100 μl of fresh FGM. The cells were grown until confluent, with a media change every 48 to 72 hours.
(§3) An UVLM-26 lamp was used as the source of UVB light. UV light intensity was measured using a UVX radiometer coupled to a UVB sensor probe (UV Products) to determine the time required to deliver an approximate dose of 50 mj/cm^2. Prior to UVB exposure, the FGM was replaced with 100 μl PBS. After exposure, the PBS was removed and replaced with FGM supplemented with either the test materials, 20 μM Trolox, or left unsupplemented. A duplicate set of cells was also prepared and treated as described above, with the exception that they were not exposed to UVB light. […] The cells were allowed to incubate with the test materials for 48 hours, and then changes in cell viability were determined via an MTT assay. […]
(§4) After the 48-hour incubation, the cell culture medium was removed and the fibroblasts were washed with PBS to remove any remaining test material. […] The 96-well plate was then read at 540 nm using isopropyl alcohol as a blank.
(§5) The mean MTT absorbance value for the negative control cells (non-UVB exposed and non test material treated cells) was calculated and used to represent 100% value for cell number. The individual MTT values from the cells undergoing the various treatments was then divided by the mean value for the negative control cells and expressed as a percent, to determine the change in cell viability caused by each treatment. MTT scores for each treatment are expressed as means±the standard deviation of the mean.

[3] = as above; conditions: human, cultured dermal fibroblasts
Method: as §1, §2, §3, §4, §5

[4] = system: Fibroblasts (HDFn Cell Line); assay: Initial pilot cell viability dose response (MTT assay); conditions: for cell viability, percent of untreated cells: 48 hours
Method: Initial screening was conducted to identify a test range suitable to determine the effect of a broad range of test material concentrations on cell viability. […] Cultured fibroblasts were exposed to the test materials for 48 hours and then changes in cell viability were determined using an MTT assay (i.e., a colorimetric analysis of the metabolic activity of the cultured cells, described in greater detail below).
The purple crystals are extracted from the cells with isopropanol and the amount of crystal formation quantified spectrophotometrically. […] A decrease in color intensity can be a sign of toxicity.
Fibroblasts (Cascade Biologics, HDFn Cell Line, lot#1C0914) were seeded into the individual wells of either a 96-well plate (for the initial pilot work to determine concentration effects on cell viability) in 100 μl of Fibroblast Growth Media (FGM) or in 12-well plates (for the measurement of collagen, elastin and MMP-1) in 1.0 ml of FGM and incubated overnight at 37±2° C. and 5±1% CO2. On the following day, the medium was removed via aspiration to eliminate any non-adherent cells and replaced with fresh FGM. The cells were grown until confluent, with a media change every 48 to 72 hours. Upon reaching confluency, the cells were treated for 24 hours with Dulbecco's Modified Essential Media (DMEM) supplemented with 1.5% FBS to wash out any effects from the growth factors included in the normal FGM. After this 24-hour wash out period, the cells were treated with the test materials at the specified concentrations dissolved in DMEM with 1.5% FBS. Untreated cells (negative controls) received DMEM with 1.5% FBS. The cells were incubated for 48 hours and at the end of the incubation period cell culture medium was either discarded (pilot work) or collected and stored frozen at −75° C. The test materials were tested in triplicate.
After the 2-day incubation, the cell culture medium was removed and the fibroblasts were washed twice with PBS to remove any remaining test material. After the final wash, either 100 μl (96-well plates) or 300 μl (12-well plates) of DMEM supplemented with 0.5 mg/ml MTT were added to each well and the cells were incubated for 1 hour at 37±2° C. and 5±1% CO2. After the incubation, the DMEM/MTT solution was removed and the cells were washed again once with PBS and then either 100 μl (96-well plates) or 1 ml (12-well plates) of isopropyl alcohol were added to each well to extract the purple formazin crystals. For the 12-well plates, two hundred microliters of the isopropyl extracts was transferred to a 96-well plate. The 96-well plates were read at 540 nm using isopropyl alcohol as a blank. The mean MTT absorbance value for the negative control cells was calculated and used to represent 100% value for cell viability. The individual MTT values from the cells undergoing the various treatments were then divided by the mean value for the negative control cells and expressed as a percent, to determine the change in cell viability caused by each treatment.

[5] = system: elastin; assay: Elastin assay (Fastin colorimetric assay of culture media); assay type: cell-based, human; conditions: summary in words
Method: Elastin is released by fibroblasts (soluble elastin) into the extracellular space where it is then cross-linked to other elastin proteins to form an extensive network of fibers and sheets (insoluble elastin). Soluble elastin can be readily measured from cell culture medium via a colorimetric assay.
The test materials were tested in triplicate.
In these experiments, the Biocolor Fastin Elastin Assay kits were used. A 50 μl aliquot of sample material (cell culture medium for soluble elastin) was mixed with 1.0 ml of cold Fastin Precipitating Reagent in a 1.5-ml microcentrifuge tube. […]
To release the elastin-bound dye, 1.0 ml of Fastin Destain reagent was added to each microcentrifuge tube. […] The absorbance of this solution was measured by a plate reader at 490 nm (200 μl volume read).
An elastin standard curve was generated using 12.5, 25, and 50 μg aliquots of an Elastin Standard into microcentrifuge tubes (in duplicate). These samples were treated as described above (Elastin Assay) and the absorbance values were used to generate a standard curve of known concentrations. To derive the standard curve for the elastin assay, the absorbance was plotted against the elastin concentration in μg/ml for the standards. […] Mean absorbance values for the test materials and untreated samples were then used to estimate the amount of elastin present in each sample.

Percent Inhibition ([1]; 30 nM): 43% | Percent Inhibition ([1]; 100 uM): 96%
Compound: CC(C)C[C@H](NP(=O)(O)O[C@@H]1O[C@@H](C)[C@H](O)[C@@H](O)[C@H]1O)C(=O)N[C@@H](Cc1c[nH]c2ccccc12)C(=O)O [Phosphoramidon, phosphoramidon, reference compound]

Compound: Cc1c(C)c2c(c(C)c1O)CCC(C)(C(=O)O)O2 (stereo not shown) [Trolox]
viability at 20 µM [2]: 77 ± 9% | viability at 48 h, 20 µM [3]: 120 ± 11%

Compound: GC2596-26-A: monodispersed 13-mer SELP47K RSPP (Example 1)
cell viability, percent of untreated cells ([4]; 0.0014%): 99 ± 1% | cell viability, percent of untreated cells ([4]; 0.007%): 101 ± 5% | cell viability, percent of untreated cells ([4]; 0.014%): 99 ± 10% | cell viability, percent of untreated cells ([4]; 0.07%): 96 ± 6% | cell viability, percent of untreated cells ([4]; 0.14%): 101 ± 4% | cell viability, percent of untreated cells ([4]; 0.5%): 171 ± 4% | cell viability, percent of untreated cells ([4]; 1%): 138 ± 7% | effect on the number of viable cells ([4]; initial dose response, summary in words): strongly stimulate increases in the number of viable cells | effect on elastin synthesis [5]: excellent increase
